What was measured:
MutS [1] = molecular target: T1, MutS (Escherichia coli, UniProt P23909 1-853); test: EMSA; 38-150 nM protein; 20 mM Tris pH 7.6, 5 mM MgCl2, 1 mM DTT, 50 ug/ml BSA, 10 mM KCl, 200 fmol homoduplex competitor, 10-20 fmol labeled DNA in 20 ul; 6% native PAGE 0.5X TBE with; conditions: protein: recombinant; tags: His; chain copies: 2; label: 32P; blunt
T1 sequence: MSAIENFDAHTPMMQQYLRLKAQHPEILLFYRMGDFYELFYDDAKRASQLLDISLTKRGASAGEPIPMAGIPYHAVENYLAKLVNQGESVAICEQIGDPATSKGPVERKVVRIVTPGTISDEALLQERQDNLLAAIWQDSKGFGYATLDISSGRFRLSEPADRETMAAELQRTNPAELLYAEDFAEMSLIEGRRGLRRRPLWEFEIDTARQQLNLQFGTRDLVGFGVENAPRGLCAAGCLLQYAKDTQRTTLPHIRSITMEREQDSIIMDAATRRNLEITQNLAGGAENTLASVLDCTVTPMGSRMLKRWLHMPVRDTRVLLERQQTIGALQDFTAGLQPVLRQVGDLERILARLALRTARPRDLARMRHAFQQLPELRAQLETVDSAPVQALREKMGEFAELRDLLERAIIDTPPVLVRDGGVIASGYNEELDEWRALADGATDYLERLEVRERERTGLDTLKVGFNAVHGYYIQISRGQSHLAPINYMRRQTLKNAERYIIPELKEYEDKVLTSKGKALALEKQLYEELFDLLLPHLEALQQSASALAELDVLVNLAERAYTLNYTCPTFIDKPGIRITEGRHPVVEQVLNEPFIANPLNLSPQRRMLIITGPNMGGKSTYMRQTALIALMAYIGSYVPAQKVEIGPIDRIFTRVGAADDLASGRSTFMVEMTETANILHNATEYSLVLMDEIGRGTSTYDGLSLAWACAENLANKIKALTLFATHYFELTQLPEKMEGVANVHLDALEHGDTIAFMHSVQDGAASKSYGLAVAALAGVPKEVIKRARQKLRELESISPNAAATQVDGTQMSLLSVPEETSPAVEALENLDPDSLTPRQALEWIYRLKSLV

MutS [2] = molecular target: T1, MutS; test: EMSA; no nucleotide; 5 mM Mg2+; homoduplex competitor; 20 mM Tris pH 7.6, 5 mM MgCl2, 1 mM DTT, 50 ug/ml BSA, 10 mM KCl, 200 fmol homoduplex competitor, 10-20 fmol labeled DNA in 20 ul; 6% native PAGE 0.5X TBE with; conditions: protein: recombinant; tags: His; chain copies: 2; label: 5' 32P; blunt; single G-T mismatch at position 14 of strand 1

B1: Homoduplex (dsDNA)
DNA 1: CTAGCAAGCTTTCAATTCTAGAAATTCGGC
DNA 2: GCCGAATTTCTAGAATTGAAAGCTTGCTAG
MutS [1]
  binding result: no binding

B2: G-T mismatch heteroduplex (dsDNA)
DNA 1: CTAGCAAGCTTTCGATTCTAGAAATTCGGC
DNA 2: GCCGAATTTCTAGAATTGAAAGCTTGCTAG
MutS [2]
  binding signal: > 2 fold Kd of MutS for TP-G4

Source: article PMC3437207, “G-quadruplex recognition activities of E. Coli MutS”
